Test results taken from PMC10581246, “The presence of benzene ring activating CoA ligases for aromatics degradation in the ANaerobic MEthanotrophic (ANME) archaea” (Microbiology Spectrum, 2023).

Key:
Test in all cases: purified protein
Settings in all cases: apparent, 1 mM ATP, 0.5 mM CoA, 10 mM MgCl2, 50 mM Tris-HCl pH 8.0, room temperature
O=C(O)c1ccccc1 = tested on: O=C(O)c1ccccc1
O=C(O)c1cccc(O)c1 = tested on: O=C(O)c1cccc(O)c1
O=C(O)c1ccc(O)cc1 = tested on: O=C(O)c1ccc(O)cc1
O=C(O)Cc1ccccc1 = tested on: O=C(O)Cc1ccccc1
O=C(O)Cc1ccc(O)c(O)c1 = tested on: O=C(O)Cc1ccc(O)c(O)c1
O=C(O)Cc1ccc(O)cc1 = tested on: O=C(O)Cc1ccc(O)cc1
O=C(O)Cc1cccc(O)c1 = tested on: O=C(O)Cc1cccc(O)c1

In the case of BadAANME (ANME-2 cluster archaeon), the Km (O=C(O)c1ccccc1) is reported as 12.98 ± 1.563 µM, the kcat (O=C(O)c1ccccc1) is reported as 6.762 ± 0.1513 min⁻¹ and the Km (O=C(O)c1cccc(O)c1) is reported as 76.97 ± 14.69 µM. For the same substance, the kcat (O=C(O)c1cccc(O)c1) was 13.18 ± 0.6763 min⁻¹, the Km (O=C(O)c1ccc(O)cc1) was 55.08 ± 6.910 µM and the kcat (O=C(O)c1ccc(O)cc1) was 6.517 ± 1.778 min⁻¹.
“PaaKANME (PaaK1ANME) (ANME-2 cluster archaeon)” gave a Km (O=C(O)Cc1ccccc1) of 180.6 ± 32.18 µM, a kcat (O=C(O)Cc1ccccc1) of 0.153 ± 0.00755 s⁻¹ and a Km (O=C(O)Cc1ccc(O)c(O)c1) of 42.80 ± 15.03 µM. For the same substance, the kcat (O=C(O)Cc1ccc(O)c(O)c1) was 0.0976 ± 0.00722 s⁻¹, the Km (O=C(O)Cc1ccc(O)cc1) was 49.15 ± 12.54 µM and the kcat (O=C(O)Cc1ccc(O)cc1) was 0.148 ± 0.00881 s⁻¹. It also gave a Km (O=C(O)Cc1cccc(O)c1) of 68.87 ± 9.425 µM and a kcat (O=C(O)Cc1cccc(O)c1) of 0.254 ± 0.00895 s⁻¹.
